In the supplement of paper PMC10724198:
± gives the standard deviation of the averaged measurements.
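Also: PSI is a weighted mean of sequencing reads over stability bins, variants kept only with over 10 reads, mCherry proximal and sfGFP distal, peptide attached via GGGS linker.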

Each sequence was assayed on Saccharomyces cerevisiae (assay: protein stability index of tFT-peptide fusion (C-terminal peptide) (PSI (0-1 scale)); higher = more stable (slower turnover)). Conditions: genetic background: wild type; temperature: 30 C.
Sequence AEIVCLTDGLLF has a protein stability index of 0.5 ± 0.2.
With AFFLLVSLLVSP the protein stability index was 0.204 ± 0.097.
Work on AFPSSVILMVFS yielded a protein stability index of 0.332 ± 0.019.
AFVVYSGSHGLV was tested, and the protein stability index was 0.57 ± 0.2.
AGALAVALPCIC was tested, and the protein stability index was 0.5 ± 0.046.
For AGGGGRFWVCVG, the protein stability index was 0.364 ± 0.11.
ALLVLTVSYVFS was tested, and the protein stability index was 0.167 ± 0.022.
Work on ALVWYSLSIIVN yielded a protein stability index of 0.205 ± 0.064.
Work on APGGRGAAGPSC yielded a protein stability index of 0.69 ± 0.029.
Work on ARALLGVGWYWV yielded a protein stability index of 0.417 ± 0.024.
Work on ARCKRSLSGGIG yielded a protein stability index of 0.588 ± 0.14.
With ARSGGYLMVVLV the protein stability index was 0.463 ± 0.031.
ASFVCWSVCALG gave a protein stability index of 0.413 ± 0.025.
In the case of ASGFLVIPLWVF, the protein stability index is reported as 0.294 ± 0.019.
Work on ASICAFFCWFLV yielded a protein stability index of 0.419 ± 0.022.
Work on ASSFYVDLVLVS yielded a protein stability index of 0.447 ± 0.0094.
Work on AYACSILRCKSS yielded a protein stability index of 0.34 ± 0.086.
Work on CAGRQGRERGHT yielded a protein stability index of 0.695 ± 0.011.
Sequence CALFLLSSPSPT has a protein stability index of 0.699 ± 0.011.
With CASIVDGFAFRF the protein stability index was 0.7662 ± 0.0074.
With CFCPILFPRCLA the protein stability index was 0.25 ± 0.072.
For CFGFMFLLLFDV, the protein stability index was 0.405 ± 0.02.
Work on CFRRPLLRVVLT yielded a protein stability index of 0.506 ± 0.018.
CFSYLLIVLLFP showed a protein stability index of 0.279 ± 0.005.
CFVPFFLPLCAF was tested, and the protein stability index was 0.139 ± 0.016.
Work on CGILACSVCTFF yielded a protein stability index of 0.509 ± 0.021.
In the case of CGLLWFYSFFLF, the protein stability index is reported as 0.38 ± 0.021.
For CGLYNQFCLFLY, the protein stability index was 0.31 ± 0.027.
CGVWVVVASAYR showed a protein stability index of 0.377 ± 0.03.
With CGWVRRARVKMM the protein stability index was 0.241 ± 0.015.
Work on CHFLLPFLFTCA yielded a protein stability index of 0.332 ± 0.006.
Work on WSRVQFFYFCWI yielded a protein stability index of 0.547 ± 0.051.
Sequence WSSTLFFFVGFS has a protein stability index of 0.673 ± 0.056.
With WSSTPSCVPDLP the protein stability index was 0.721 ± 0.054.
WSVVGVGGCGAR gave a protein stability index of 0.712 ± 0.041.
With WSVVRGGGCGAR the protein stability index was 0.697 ± 0.028.
In the case of WTLELSGWLRSE, the protein stability index is reported as 0.77 ± 0.079.
WVCRVWGGWLRG was tested, and the protein stability index was 0.686 ± 0.044.
WVGGGRAKAKRE gave a protein stability index of 0.696 ± 0.054.
WVGRIRGMEGWM showed a protein stability index of 0.696 ± 0.037.
Sequence WVGSWYVATGEA has a protein stability index of 0.754 ± 0.063.
Sequence WVGYAWDGKFDL has a protein stability index of 0.736 ± 0.11.
In the case of WVREFSHKHVMS, the protein stability index is reported as 0.718 ± 0.01.
With WVRVSVPAVGRI the protein stability index was 0.7035 ± 0.0067.
WVSDTNNTSRRK gave a protein stability index of 0.752 ± 0.051.
Sequence WVSFVFCSLLGG has a protein stability index of 0.588 ± 0.018.
For WVSHMHLGSFVH, the protein stability index was 0.701 ± 0.09.
WVSPALEALYRK gave a protein stability index of 0.764 ± 0.07.
WWFGGETGVGGR was tested, and the protein stability index was 0.712 ± 0.039.
WWPDILWLNTGW was tested, and the protein stability index was 0.701 ± 0.035.
WYIEYLNYTTEQ showed a protein stability index of 0.697 ± 0.0089.
WYKIQILDPNVG gave a protein stability index of 0.749 ± 0.011.
WYLRSFVVSTLQ was tested, and the protein stability index was 0.533 ± 0.065.
YARVIFGGNWFS gave a protein stability index of 0.552 ± 0.02.
YASRVLCVGLVL showed a protein stability index of 0.636 ± 0.094.
Work on YCGCSLSEMSWV yielded a protein stability index of 0.741 ± 0.037.
With YCGPSAGREGGG the protein stability index was 0.771 ± 0.081.
For YCGSVCRPYSYL, the protein stability index was 0.695 ± 0.057.
YCLLCSFVGPPA was tested, and the protein stability index was 0.731 ± 0.19.
Work on YCPPHRCEAECI yielded a protein stability index of 0.657 ± 0.06.
Work on YCRGGGRAKREV yielded a protein stability index of 0.693 ± 0.014.
YDDSSLLFSNNL gave a protein stability index of 0.702 ± 0.0078.
In the case of YDLGHYFSIPRL, the protein stability index is reported as 0.747 ± 0.011.
In the case of YDTGSRASWIAF, the protein stability index is reported as 0.714 ± 0.067.
Sequence YDVGSKAVLTLE has a protein stability index of 0.566 ± 0.0074.
With YEGVNLSWYRIR the protein stability index was 0.676 ± 0.045.
YENFHTRFAVGV gave a protein stability index of 0.504 ± 0.037.
Work on YEPNYKEKKTQY yielded a protein stability index of 0.69 ± 0.017.
For YFAQCLDFFSLV, the protein stability index was 0.663 ± 0.019.
Sequence YFCGRGSVLLVT has a protein stability index of 0.56 ± 0.014.
Sequence YFGPSPTRPPVP has a protein stability index of 0.7225 ± 0.0015.
YFLPESKIGRSG showed a protein stability index of 0.705 ± 0.023.
YFPFPPPLLSPP gave a protein stability index of 0.766 ± 0.02.
YGCVSPVAGFAN was tested, and the protein stability index was 0.7254 ± 0.0069.
Sequence YGGGGWRGVALG has a protein stability index of 0.65 ± 0.043.
With YGVFALFLSSLS the protein stability index was 0.576 ± 0.056.
In the case of YHDVRSLGPSRT, the protein stability index is reported as 0.666 ± 0.04.
YIKAPCMRQSGG was tested, and the protein stability index was 0.704 ± 0.019.
For YILPTPKAFRSF, the protein stability index was 0.738 ± 0.17.
Sequence YKNRKYNGKIRI has a protein stability index of 0.585 ± 0.18.
In the case of YLCLPPALISRI, the protein stability index is reported as 0.656 ± 0.029.
Sequence YLDTVALLSRVL has a protein stability index of 0.569 ± 0.027.
YLFPFLCFSPPP showed a protein stability index of 0.702 ± 0.072.
For YLGTETSLTSLK, the protein stability index was 0.786 ± 0.088.
Work on YLLKRSQSLLII yielded a protein stability index of 0.5 ± 0.014.
With YLPYRTCSWKYE the protein stability index was 0.56 ± 0.022.
In the case of YLYSCVCGVLSN, the protein stability index is reported as 0.5472 ± 0.0049.
For YNINIKKENITE, the protein stability index was 0.68 ± 0.025.
YNSTVVKKGRCP gave a protein stability index of 0.7024 ± 0.0028.
With YPPLPVRPLVLL the protein stability index was 0.515 ± 0.0056.
For YPPPPPPPPPRF, the protein stability index was 0.7367 ± 0.0056.
In the case of YPPRLPSILPFP, the protein stability index is reported as 0.696 ± 0.046.
YPSLPQIVLATV was tested, and the protein stability index was 0.5033 ± 0.004.
YQCPASSPVLSA gave a protein stability index of 0.7191 ± 0.005.
Work on YQEIIKRQTGNK yielded a protein stability index of 0.745 ± 0.012.
Sequence YQFAALRFTFPL has a protein stability index of 0.647 ± 0.044.
For YRDQAGTGSWRM, the protein stability index was 0.692 ± 0.023.
YRGRGSDQYAGT was tested, and the protein stability index was 0.624 ± 0.058.
With YRHYVKLGPKPF the protein stability index was 0.668 ± 0.024.
In the case of YRKGWRREVGGG, the protein stability index is reported as 0.699 ± 0.011.
For YRLAPVSLTMSS, the protein stability index was 0.706 ± 0.045.
For YRLDTFCPHFSN, the protein stability index was 0.752 ± 0.13.
YRLRAFLSMTQQ gave a protein stability index of 0.616 ± 0.01.
